{
  "source": "the nanobody polyreactivity screen of Harvey et al. (2022)",
  "data": [
    {"assay": "yeast display, Sf9 membrane polyspecificity reagent, FACS + sequencing; frameworks hold sequencing errors", "outline": "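Genes from sorted yeast were amplified by colony PCR, read by MiSeq 2 × 250 sequencing and filtered on CDR length. These cells carried a synthetic nanobody library in Saccharomyces cerevisiae BJ5465 and were sorted by FACS into low and high (top ~1%) gates on anti-HA and streptavidin fluorescence. Polyreactivity is labelled according to the gate of origin.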", "values": [
      {"sequence": "QVQLVESGGGLVQAGGSLRLSCAASGSTFQSYAMGRYRQAPGKERELVAAISFSGGSTYYADSVKGRFTISRDNAKNTVYLQMNSLKPEDTAVYYCAKRGWVYFHGYDYWGQGTQVTVSS", "polyreactivity (PSR sort gate)": "low polyreactivity"},
      {"sequence": "QVQLVESGGGLVQAGGSLRLSCAASGSTFQSYAMGWYRQAPGKERELVAAIDIGDSTYYADSVKGRYTISRDNAKNTVYLQMNSLKPEDTAVYYCAADDEDVLFDYWGQGTQVTVSS", "polyreactivity (PSR sort gate)": "low polyreactivity"},
      {"sequence": "QVQLVESGGGLVQAGGSLRLSCAASGSTFQSYAMGWYTQAPGKERELVAAISARGGTTYYADSVKGRFTISRDNAKNTVYLQMNSLKPEDTAVYYCAAEWDTNFWYDYWGQGTQVTVSS", "polyreactivity (PSR sort gate)": "low polyreactivity"},
      {"sequence": "QVQLVESGGGLVQAGGSLRLSCAASGSTFQSYTMGWYRQAPGKERELVATITSTSSTSYADSVKGRFTISRDNAKNTVYLQMNSLKPEDTAVYYCNAEGLHWGQVTQVTVSS", "polyreactivity (PSR sort gate)": "low polyreactivity"},
      {"sequence": "QVQLVESGGGLVQAGGSLRLSCAASGSTFQVYAMGWYRQAPGKERELVASITSGGITYYADSVKGRFTISRDNAKNTVYLQMNSLKPEDTAVYYCAVDIRQSGELQRLFLYDYWGQGTQVTVSS", "polyreactivity (PSR sort gate)": "low polyreactivity"},
      {"sequence": "QVQLVESGGGLVQAGGSLRLSCAASGSTFQVYTKGWYIQAPGKEREFVASISWSGSSTYYADSVKGRFTISRDNAKNTVYLQMNSLKPEDTAVYYCAARARIKYLADPGYYWGQGTQVTVSS", "polyreactivity (PSR sort gate)": "high polyreactivity"},
      {"sequence": "QVQLVESGGGLVQAGGSLRLSCAASGSTFQYNAMGWYRQAPGKERELVAAITGSGGSTYYADSVKGRFTISRDNAKNTVYLQMNSLKPEDTAVYYCAKLVRSFNWVLARHKYDYWGQGTQVTVSS", "polyreactivity (PSR sort gate)": "low polyreactivity"},
      {"sequence": "QVQLVESGGGLVQAGGSLRLSCAASGSTFQYYAMGWSRQAPGKERELVAAISYGGSRTYYADSVKGRFTISRDNAKNTVYLQMNSLKPEDTAVYYCAKEKYRALAPYYYWGQGTQVTVSS", "polyreactivity (PSR sort gate)": "high polyreactivity"},
      {"sequence": "QVQLVESGGGLVQAGGSLRLSCAASGSTFQYYAMGWYRQAPGKERELVAAISSGGSTYYADSVKGRFTISRDNAKNTVYLQMNSLKPEDTAVYYCAADFVKRQANRQFDYWGQGTQVTVSS", "polyreactivity (PSR sort gate)": "high polyreactivity"},
      {"sequence": "QVQLVESGGGLVQAGGSLRLSCAASGSTFQYYAMGWYRQAPGKERELVATISTSGGRTYYADSVKGRFTISRDNAKNTVYLQMNSLKPEDTAVYYCAKRRYSTYYWTFDYWGQGTQVTVSS", "polyreactivity (PSR sort gate)": "high polyreactivity"},
      {"sequence": "QVQLVESGGGLVQAGGSLRLSCAASGSTFRANAMGWYRQAPGKERELVAAISWSGGRTYYADSVKGRFTISRDNAKNTVYLQMNSLKPEDTAVYYCAAVTTQYIYSVPYYYWGQGTQVTVSS", "polyreactivity (PSR sort gate)": "high polyreactivity"},
      {"sequence": "QVQLVESGGGLVQAGGSLRLSCAASGSTFRCYAMGGYRQATGKERELVAAIRSAGSTDYADSVKGRFTISRDNAKITVYLQMNILKQEDTAVYYCAAYFRYRSSRYGYWGQGTQVTVSS", "polyreactivity (PSR sort gate)": "high polyreactivity"},
      {"sequence": "QVQLVESGGGLVQAGGSLRLSCAASGSTFRFNTMGWYRQAPGKERELVAAISYSGGSTYYADSVKGRFTISRDNAKNTVYLQMNSLKPEDTAVYYCAVQAWYLTYSYPYSKGYYWGQGTQVTVSS", "polyreactivity (PSR sort gate)": "high polyreactivity"},
      {"sequence": "QVQLVESGGGLVQAGGSLRLSCAASGSTFRFNTMGWYRQAPGKERGLVACIAAGTTTNYADSVKGRFTISRDNAKNTVYLQMNSLKPEDAAVYYCAALNAFNTGHWYWGQGTQVTVSS", "polyreactivity (PSR sort gate)": "low polyreactivity"},
      {"sequence": "QVQLVESGGGLVQAGGSLRLSCAASGSTFRFYAMGWYRQAPGKERELVAVISFNDGSTYYADSVKGRFTISRDNAKNTVYLQMNSLKPEDTAVYYCATDELDSWWYEYEYWGQGTQVTVSS", "polyreactivity (PSR sort gate)": "low polyreactivity"},
      {"sequence": "QVQLVESGGGLVQAGGSLRLSCAASGSTFRFYAMGWYRQEPGKERELVAAITSSGGSTYYADSVKGRFTISRDNAKNTVYLQMNSLKPEDTAVYYCNAYPNPVSYELDYWGQGTQVTVSS", "polyreactivity (PSR sort gate)": "low polyreactivity"},
      {"sequence": "QVQLVESGGGLVQAGGSLRLSCAASGSTFRGYAMGSYRQAPGKETELVATITSGGSTNYADSVKGRFTISRDNAKNTVSLQMNSLKPEDTAVYYCNARWVPSYWKYFHANYGYWGQGTQVTVSS", "polyreactivity (PSR sort gate)": "high polyreactivity"},
      {"sequence": "QVQLVESGGGLVQAGGSLRLSCAASGSTFRGYAMGWYRQAPGKERELVAAISRADITNYADSVKGRFTISRDNAKNTVYLQMNSLKPEDTAVYYCNAGVGARESDYWGQGTQVTVSS", "polyreactivity (PSR sort gate)": "low polyreactivity"},
      {"sequence": "QVQLVESGGGLVQAGGSLRLSCAASGSTFRGYAMGWYRQAPGKERELVATITSGGSTNYADSVKGRFTISRDNGKNTVYLQMNSLKPEDTAVYYCNARWVPRYWYDYWGQGTQVTVSS", "polyreactivity (PSR sort gate)": "high polyreactivity"},
      {"sequence": "QVQLVESGGGLVQAGGSLRLSCAASGSTFRGYAMGWYRQATGKERELVAAISSSGGRTYYADSVKGRFTISRDNAKNPVYLQMNSLKREDTAVYYCNAASKNSVRYAYQNYDYRGQGTQVTVSS", "polyreactivity (PSR sort gate)": "high polyreactivity"},
      {"sequence": "QVQLVESGGGLVQAGGSLRLSCAASGSTFRGYAMGWYRQVPGKERELVADISWSGTSTYYADSVKGRFTISRDNAKNTFYLQLNSVIPEDTAVYYCAKGGRDRSRKYYYWGQGTQVTVSS", "polyreactivity (PSR sort gate)": "high polyreactivity"},
      {"sequence": "QVQLVESGGGLVQAGGSLRLSCAASGSTFRGYTMGWYRQAPGKEREFVATISSRGGSTNYADSVKGRFTISRDNAKNTVYLQMNSMKPEDTAVYYCNVRRVWWEWPRGDSWGQGTQVTVSS", "polyreactivity (PSR sort gate)": "high polyreactivity"},
      {"sequence": "QVQLVESGGGLVQAGGSLRLSCAASGSTFRGYVMGWYRQAPGKERELVAAISRSGTSTYYADSVKGRFTISRDNAKNTVYLQMNSLKPEDTAVYYCAAQLYGHGEDYWGQGTQVTVSS", "polyreactivity (PSR sort gate)": "high polyreactivity"},
      {"sequence": "QVQLVESGGGLVQAGGSLRLSCAASGSTFRHYAMGWYRQAPGKERELVAAISSRGGSTYYADSVKGRFTISRDNAKNTVYLQMNSLKPEDTAVYYCNVVGYQRPSYRHMDYWGQGTQVTVSS", "polyreactivity (PSR sort gate)": "high polyreactivity"},
      {"sequence": "QVQLVESGGGLVQAGGSLRLSCAASGSTFRIYAMRSYRQAPGKERELGARISWNGGRTYYADSVKGRFTISRVNAKNTVYLQMNSLKPEDTAGYYCNALVPPGYDYWGQGTQVSVSS", "polyreactivity (PSR sort gate)": "high polyreactivity"},
      {"sequence": "QVQLVESGGGLVQAGGSLRLSCAASGSTFRIYTMGWYRQAPGKERELVAGISSSGNTNYADSVKGRFTISRDNAKNTVYLQMNSLKPEDTAVYYCNAASLKFTSPVRFGYWGQGTQVTVSS", "polyreactivity (PSR sort gate)": "high polyreactivity"},
      {"sequence": "QVQLVESGGGLVQAGGSLRLSCAASGSTFRKYAMGWYRQAPGKEREFVAAITWSTGTTYYADSVKGRFTISRDNAQNTVYLQMNSLKPEDTAVYYCSADSKPPHELYESIEHESWGQGTQVTVSA", "polyreactivity (PSR sort gate)": "low polyreactivity"},
      {"sequence": "QVQLVESGGGLVQAGGSLRLSCAASGSTFRKYAMGWYRQAPGKERELVAAISRGGDSTYYADSVKGRFTISRENAKNTVYLQMNSLKPEDTAVYYCAADTRPGYSGFEYRGQGTQVTVSS", "polyreactivity (PSR sort gate)": "high polyreactivity"},
      {"sequence": "QVQLVESGGGLVQAGGSLRLSCAASGSTFRKYAMGWYSQAPGKERELVAAIRRNGVSTYYADSVKGRFTISLDNAKNTVYLQMNSLKPEDTAVYYCNARTKPDYDWGQGTQVTVSS", "polyreactivity (PSR sort gate)": "high polyreactivity"},
      {"sequence": "QVQLVESGGGLVQAGGSLRLSCAASGSTFRLYAMGWYRQAPGKERELDAAISGSGGSTYYADSVKGRFTISRDYEKNTVYLQMNSLKPVDTAVYYCAAEVVRRYYAGRGYWGHGTQVTVSS", "polyreactivity (PSR sort gate)": "high polyreactivity"},
      {"sequence": "QVQLVESGGGLVQAGGSLRLSCAASGSTFRLYTMGWYRPAPVKERELVAAITSGGSTNYADSVKGRFTISRDNAKNTVYLQMNSLKPEDTSVYYCAIAKRFPSFDYWGQGTQVTVSS", "polyreactivity (PSR sort gate)": "low polyreactivity"},
      {"sequence": "QVQLVESGGGLVQAGGSLRLSCAASGSTFRPYAMGWYRQAPGKEMELVARMTGSGDSTYYADSVKGRFTISRDNAKNTVYLQMNSLKPEDTAVYYCNALYTSLRKYNYWGQGTQVTVSS", "polyreactivity (PSR sort gate)": "low polyreactivity"},
      {"sequence": "QVQLVESGGGLVQAGGSLRLSCAASGSTFRPYAMGWYRQAPGKERDLVAAISSSGGSTYYADSVKGRFTISRDNAKNTVYLQMNSLKPEDTAVYYCAAVRRYRYPEYNHWGQGTQVTVSS", "polyreactivity (PSR sort gate)": "low polyreactivity"},
      {"sequence": "QVQLVESGGGLVQAGGSLRLSCAASGSTFRPYAMGWYRQAPGKERELVAAISSGDSTYYADSVKGRFTISRDNAKNTVYLQMNSPKREDTAVYYCAKRNYWHRGGGYWGQGTQVTVSS", "polyreactivity (PSR sort gate)": "high polyreactivity"},
      {"sequence": "QVQLVESGGGLVQAGGSLRLSCAASGSTFRPYAMGWYRQAPGKERELVAAISWSGGRTYYADSVKGRFTISRDNAKNNVYLQMNSLKPEDTAVYYCNRAGRQPKNTYDYWGQGTQVTVSS", "polyreactivity (PSR sort gate)": "high polyreactivity"},
      {"sequence": "QVQLVESGGGLVQAGGSLRLSCAASGSTFRQNAMGWYRQAPGKERELVAAISGTAGSTYYADSVKGRFTISRDNAKNTVYLQMNSLKPEDTAVYYCAKRKITKYGYGYWGQGTQVTVSS", "polyreactivity (PSR sort gate)": "high polyreactivity"},
      {"sequence": "QVQLVESGGGLVQAGGSLRLSCAASGSTFRQYAMGWYRQAPGKERELVAAITWRGDNTYYADSVKGRFTISRDNAKNTVYLQMNSLKPEDTAVYYCAARWSYRLYWGYGYWGQGTQVTLSS", "polyreactivity (PSR sort gate)": "low polyreactivity"},
      {"sequence": "QVQLVESGGGLVQAGGSLRLSCAASGSTFRQYSMGWYRQAPGKERELVAAISWSGGSTYYADSVKGRFTISRDNAKNTVYLQMNSLKPEDTAVYYCAAGRGGHRYKVGYWGQGTQVTVSS", "polyreactivity (PSR sort gate)": "high polyreactivity"},
      {"sequence": "QVQLVESGGGLVQAGGSLRLSCAASGSTFRRNAMGWYRQAPGKEREFVAAISSRGGSTYYADSVKGRFTISRDNAKNTVYLQMNSLKPEDTAVYYCAADKASRHSNPFYYWGQGTQVTVSS", "polyreactivity (PSR sort gate)": "high polyreactivity"},
      {"sequence": "QVQLVESGGGLVQAGGSLRLSCAASGSTFRRNAMGWYRQAPGKERELVAAIDKSGGTTYYADSVKGRFTISRDNAKNTVYLQMNSLKPEDTAVYYCAVRSYLSSRGSHDYWGQGTQVTVSS", "polyreactivity (PSR sort gate)": "low polyreactivity"},
      {"sequence": "QVQLVESGGGLVQAGGSLRLSCAASGSTFRRNAMGWYRQAPGKERELVAAISRSGGSTYYADSEKGRFTISRDNAKNTVYLQMNSLKPEDTVVYYCAADAARTSHWSGDYWGQGTQVTVSS", "polyreactivity (PSR sort gate)": "high polyreactivity"},
      {"sequence": "QVQLVESGGGLVQAGGSLRLSCAASGSTFRRYAMGWYRPAPGKERELVAAISRSGGTTYYADSVKGRFTISRDNAKNTVYFQMNSLKPEDTAVYYCNARYPVVRYDYWGQGTQVTVSS", "polyreactivity (PSR sort gate)": "high polyreactivity"},
      {"sequence": "QVQLVESGGGLVQAGGSLRLSCAASGSTFRRYAMGWYRQAPGKEREFVAAITWSGGNTYADSVKGRFTISRDNAKNTVYLQMNSLKPEDTAVYYCAVQLVYDHYRYDYWGQGTQVTVSS", "polyreactivity (PSR sort gate)": "high polyreactivity"}
    ]}
  ]
}
